This test addresses T1, recombinant human midkine (MK17) (Homo sapiens, UniProt P21741 23-143).
T1 construct: The signal is left out; It gives a molecular weight of 13.4 kDa; also called human MK; MK17 protein
T1 sequence: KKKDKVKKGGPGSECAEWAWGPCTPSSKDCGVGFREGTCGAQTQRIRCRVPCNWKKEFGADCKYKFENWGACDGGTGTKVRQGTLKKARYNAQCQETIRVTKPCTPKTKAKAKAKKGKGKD
The test is described as follows: SPR (Biacore), antibody amine coupled to CM-4 chip, midkine 0-20 nM as analyte. On the procedure: Antibody IP-13 (2.85 mg/ml) was diluted to 5.7 μg/ml in Biacore acetate pH 4.5 buffer and amine coupled to of flow cell (FC) #3 of a CM-4 chip. Approximately 750 units were aimed to be immobilized onto Flow cells (FC) #3 of the CM-4 chip; and FC#1 was blocked using EDC/NHS followed by ethanolamine and was used as reference during the study.
Recombinant human midkine was diluted to 15 μM (1 μl of 10 mg/ml in 50 μl of HBS-EP buffer, the calculation was based on molecular weight of 13.4 kDa). Various dilutions of human midkine using HBS-EP buffer were prepared (0, 1, 2, 3, 4, 5, 10 and 20 nM).
Background: In SPR one partner is held on a chip, and binding of the other changes the refractive index at the surface.

B1: monoclonal antibody IP-13 (antibody, V domains shown)
VH: EVQLQQSGPELVKPGASVKIPCKASGYTFTDYNMGWVKQSHGKSLEWIGDINPNNGGTIYNQKFKGKATLTVDKSSSTAYMELRSLTSEDTAVYYCARWSYSNPYFDYWGQGTTLTVSS
VL: SIVMTQTPNFLLVSAGDRVTITCKASQSVSNDVSWYQQKPGQSPKLLIYYASNLYTGVPDRFTGSGYGTDFTFTISTVQAEDLAVYFCQQDYSSPWTFGGGTKLEIK
notes: also called mAb IP-13
Regarding B1, the Ka is 5e+08 M⁻¹, the dissociation constant (Kd) (commonly a measure of binding affinity in units of concentration) was 2.02 nM, the koff (usually a measure of how fast the partners let go of each other) worked out at 0.0028 s⁻¹ and the on-rate constant (kon) (commonly the rate constant with which the complex forms) was determined as 1.4e+06 M⁻¹ s⁻¹.

(Values after patent publication US20140170144A1 (CELLMID, published 2014).)
